In paper PMC5437018, “Mouse Rif1 is a regulatory subunit of protein phosphatase 1 (PP1)” (Scientific Reports, 2017):

What was measured:
Settings in all cases: both partners purified
[1] = biological target: T1, Recombinant purified α-isoform of mammalian PP1 (residues 1–330), tag cleaved (mammalian, UniProt P62136 1-330); test: ITC; CRI (140 µM) titrated into PP1 (18 µM), iTC200, 25 °C; 20 mM Tris-HCl pH 7.5, 200 mM NaCl, 1 mM MnCl2, 5 mM β-mercaptoethanol, 10% glycerol
T1 construct: Protein phosphatase 1 catalytic subunit, α-isoform, 'mammalian', residues 1–330; synthetic gene (GenScript); Printed mass 37.5 kDa; Subcloned into pMAL-c2G under the Ptac promoter; also called PP1α; source: E. coli BL21 AI (RIL), purified (TALON, TEV cleavage, heparin Sepharose); not shown: His6, N-terminal, cleaved
T1 sequence (P62136 whole entry, the tested form may be a part, canonical isoform): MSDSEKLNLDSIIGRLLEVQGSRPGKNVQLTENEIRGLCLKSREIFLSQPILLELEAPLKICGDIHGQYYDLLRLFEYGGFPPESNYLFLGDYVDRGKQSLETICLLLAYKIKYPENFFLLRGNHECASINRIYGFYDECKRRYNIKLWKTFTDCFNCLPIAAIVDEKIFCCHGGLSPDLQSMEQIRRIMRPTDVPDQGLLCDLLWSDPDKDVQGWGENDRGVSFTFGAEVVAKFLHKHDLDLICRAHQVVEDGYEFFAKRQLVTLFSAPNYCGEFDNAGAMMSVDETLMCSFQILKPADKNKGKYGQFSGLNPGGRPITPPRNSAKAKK

[2] = biological target: T1, Recombinant purified α-isoform of …; test: SPR; Biacore 3000; PP1 covalently coupled to a CM5 chip; Rif1 CRI, mutants and peptide injected at 20 µl/min in 10 mM Tris-HCl pH 7.5, 250 mM NaCl, 1 mM DTT, 2 mM MnCl2, 0.005% Tween 20; 1:1 binding model
[3] = biological target: T1, Recombinant purified α-isoform of …; test: SEC; analytical gel filtration on Superdex 75 in 20 mM Tris-HCl pH 7.5, 200 mM NaCl, 2 mM DTT, 1 mM MnCl2; PP1/CRI at molar ratios 1:1, 1:3 and 2:1

Kd [1]: 22.8 ± 4.2 nM | dH [1]: -23.8 ± 0.129 kcal/mol | Kd [2]: 9.7 ± 1.7 nM | stoichiometry N [3]: 1
B1: Rif1 CRI (residues 2093–2190), purified, wild type (domain or fragment, mouse, UniProt Q6PR54 2093-2190, looked up)
chain: TSPEKLELDSFGSVNESPSGMQQARCVWSPLASPSTSILKRGLKRSQEDEISPVNKIRRVSFADPIYQAGLADDIDRRCSVVRSHSSNSSPIIKSVKT
notes: Rif1, mouse, CRI, residues 2093–2190; For NMR the same fragment was 15N or 15N/13C labelled; Printed mass 10.8 kDa; also called CR1; 15N-labeled CRI; source: recombinant, purified (TALON beads, tag cleaved by TEV protease)
